Reference: the nanobody polyreactivity screen of Harvey et al. (2022)

Assay: yeast display, Sf9 membrane polyspecificity reagent, FACS + sequencing; frameworks hold sequencing errors
Summary of the method: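 Synthetic nanobody libraries on Saccharomyces cerevisiae BJ5465 were galactose-induced for 36–48 hours, stained 1 hour at 4 °C with 10% biotinylated, detergent-solubilized Sf9 membrane reagent and enriched on streptavidin microbeads. FACS then separated cells into low and high (top ~1%) gates by anti-HA (expression) and streptavidin (reagent binding) fluorescence. Genes were colony-PCR amplified, MiSeq 2 × 250 sequenced and CDR-length filtered. A clone's polyreactivity label is that of its gate of origin.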

QVQLVESGGGLVQAGGSLRLSCAASGSIFTYNAMGWYRQAPGKERELVAAISRGGGRTYYADSVKGRFTISRDNAKNTVYLQMNSLKPEDTAVYYCAADIYVRQRYPYYYWGQGTQVTVSS
polyreactivity (PSR sort gate): high polyreactivity

QVQLVESGGGLVQAGGSLRLSCAASGTFGGYAMGWYRQAPGKERELVARIRRNGGSTYYADSVKGRFTISRDTAKNTVYLQMNSLKPEDTAVYYCATDQLSLSSYFRPYDYGYWGQGTQVTVSS
polyreactivity (PSR sort gate): high polyreactivity

QVQLVESGGGLVQAGGSLRLSCAASGRIFQGYAMGWYRPAPGKERELLAAITVRGGTTYYADSVKGRFTISRDNAKNTVYLQMNSLKPEDTAVYYCNAAKLIHGYQSVYPGSNSRYYYWGQGTQVTVSS
polyreactivity (PSR sort gate): low polyreactivity

QVQLVESGGGLVQAGGSLRLSCAASGFTLDNYAIGWYRPAPGKERELVAASSWSGGRTYYADSVKGRFTISRDNAKNTVYLQMNSLKPEDTAVYYCYASPYGRKYGILADGDYWGQGTQVTVSS
polyreactivity (PSR sort gate): high polyreactivity

QVQLVESGGGLVQAGGSLRLSCAASGSIFIDYAMGWYRQAPGKERELVAAISWSGGSTYYADSVKGRFTISRDNAKNTVYLQMNSLKPEDTAVYYCAAYSHVSIWYDYDYWGQGTQVTVSS
polyreactivity (PSR sort gate): low polyreactivity

QVQLVESGGGLVQAGGSLRLSCAASGIIFGRYAMGWYRQAPGKERELVAAISSRGGSTYYADSVKGRFTISRDNAKNTVYLQMNSLKPEDTAVYYCNKDDERGKLYYWGQGTQVTVSS
polyreactivity (PSR sort gate): high polyreactivity

QVQLVESGGGLVQAGGSLRLSCAASGSTLRRNAMGWSRQAPGKERELVAAITGSRGSTFYADSVKGRFTISRDNAKNTVYLQMNSLKPEDTAVYYCAVYKWSTRVSQYRYDYWGQGTQVTVSS
polyreactivity (PSR sort gate): high polyreactivity

QVQLVESGGGLVQAGGSLRLSCAASGFIFLGNAMGWYRQAPGKERELVAAISSGGSTYADSVKGRFTISRDNAKNTVYLQMNSLKPEDTAVNYCAVDRAFRAQNYHEYDYWGQGTQVTVSS
polyreactivity (PSR sort gate): low polyreactivity

QVQLVESGGGLVQAGGSLRLSCAASGITLHYYAMGWYRQAPGKEREFVAAISWTGGSTYYADSVKGRFTISRDTAKNTVYLQMNSLKPEDTAVYYCAAEGGAFRTYYYWGQGTQVTVSS
polyreactivity (PSR sort gate): high polyreactivity

QVQLVESGGGLVQAGGSLRLSCAASGIIFKVNDMGWYRQAHGKEREFVAAITYSGDGTFYADSVKGRFTISRDNAKNTVYLQMNSLKPEDTAVYYCAADLPESPESYYDTDDYWGQGPQVTVSS
polyreactivity (PSR sort gate): low polyreactivity

QVQLVESGGGLVQAGGSLRLICAASGIIFYRYAMGWYRQAPGKEREFVAAISRGGGSTYYADSVKGRFTISRDNAKNTVYLQMNSLKPEDTAVYYCNARVTRVTVDQYSIKSMDYWGQGTQVTVSS
polyreactivity (PSR sort gate): high polyreactivity

QVQLVESGGGIVQAGGSLRLLCAASGRIFTGNVMGWYRQAPGKERVLVAAISYGGGSTNYADSVKGRFTISRDNAKNTVSLQMNSLIPEDTAVYYCAVLYGYRSSSRYGYDSWGQGSQVTVSS
polyreactivity (PSR sort gate): high polyreactivity

QVQLVESGGGLVQAGGSLRLSCAASGSTFGRYAMGWYRQAPGKEREFVAAISCSGGSTYYADSVKGRFTISRDNAKNTVYLQMNSLNPEDTAVYYWARYSWRGLAEFESWGQGTQVTVSS
polyreactivity (PSR sort gate): low polyreactivity

QVQLVESGGGLVQAGGSLRLSCAASGSTFRSNAMGWYRQAPGKERELVAAISRRGGSTYYADSVKGRFTISRDNAKNTVDLQMNSLKPEDTAVYYCAKGYIGFPISSFLYDYWGQGTQVTVSS
polyreactivity (PSR sort gate): high polyreactivity

QVQIVESGGGLVQAGGSLRLSCAASGFIFWDYAMGWYRQAPGKERELVAAISDSGGDTYYADSVKGRFTISRDNAKNTVYLQMNSLKPEDTAVYYCAADVELWVFRGQQYDYWGQGTQVTVSS
polyreactivity (PSR sort gate): low polyreactivity

QVQLVESGGGLVQAGGSLRLSCAASGRIFHYYAMGWYRQAPGKERELVAAISWSGGSTYYADSVKGRFTISRDNAKNTVYLQMNSLKPEVTAVYYCNRQFGRRVYISHPGPGYWGQGTQVTVSS
polyreactivity (PSR sort gate): high polyreactivity

QVQLVESGGGLVQEGGSLRLSCAASGRIFSRYVMGWYRQAPGKERELVAAITGSGGSTYYADSVKGRFTISRDNAKNTVYLQMNSLKPEDTADYYCAVVSRANSYRYNYWGQGTQVTVSS
polyreactivity (PSR sort gate): high polyreactivity

QVQLVESGGGLVQAGRSLRLSCAASGSTFRQNAMGWYRQAPGKERELVAGITFSSGSTYYADSVKGRFTISRDIAKNTLYLQMNSLKPEDTAVYYCAVRNASKNRKYYYWGQGTQVTVSS
polyreactivity (PSR sort gate): high polyreactivity

QVQLVESGGGLVQAGGSLRLSCAASGFIFYYYAMGWYRQAPGKERELVAAISWSGGRTYYADSVKGRFTISRDNAKNTVYLQMNSLKPEDTAVYYCAAVGYSKRYIYWGQGTQVTVSS
polyreactivity (PSR sort gate): high polyreactivity

QVQLVESGGGLVQAGGSLRLSCAASGSTFWWYAMGWYRQAPGKERELVAAISIGGATKYADSVKGRFTISRDNAKNTFYLQMNILKPEDTAVYYCAAVVSYHYVPYGYWGQCTQVTVSS
polyreactivity (PSR sort gate): low polyreactivity

QVQLVESGGGLVQAGGSLRLSCAASGIIFPSYDMGWYRQAPGKERELVAGITDGGDTTYADSVKWRFTISRDNAKNTVYLQMNSLKPEDTAVYYCAADIGYGYWHFDYWGQGTQVTVSW
polyreactivity (PSR sort gate): low polyreactivity

QFQLVESGGGLVQAGGSLRLSCAASGSTFEKNAMGWYRQAPGKERDLVDAISNGVSTYYADSVKGRFTISRDNAKNSVFLQMISLKPEDTAVYFCAADLFFGAETVYYDKFDYWGQGTKVTVSS
polyreactivity (PSR sort gate): low polyreactivity

QVQLVESGGGLVQAGGSLRLSCAGSGSIFYSNAMGWSRPAPGKERELVAAICWNGGRTYYADSVKGRFTISRDNAKNTVYLQMNSLKPEDTAVYYCAAKYRNRYDYWGHGTQVTVSS
polyreactivity (PSR sort gate): low polyreactivity

QVQLVESGGGLVQAGGSLRLSCAASGFTFSYYAMGWYRQATGKERELVAAITSGGSTDYADSVKGRFTISRDNAKNTVYLQMNSLKPEDTAVYYCAVTARGGYQGKGTRRIYGYWGHGTQVTVSS
polyreactivity (PSR sort gate): high polyreactivity

QVQLVESGGGLVQAGGSLRLSCAASGSTFEHYAMGWYRQAPGKERELVAAISYTGGNTYYADSVKGRFTISRDNAKNTVYLQMNSLKPEDTAVYYCAAAPLYYHRRGYYYWGQGTQVTVSS
polyreactivity (PSR sort gate): high polyreactivity

QVQLVESGGGLVQAGGSLRLSCAASGRTFTRYAMGWYRQAPGKERELVAAISWSGGSTYYADSVKGRFTISRDNAKNTVYLQMNSLKPEDTAVYYCNAYYYYPEFNYWGQGTQVTVSS
polyreactivity (PSR sort gate): high polyreactivity

QVQLVESGGGLVQAGGSLRLSCAASGSTFWFNAMGWYRQAPGKEREFVAAITWRGGSTYYSDSVKGRFTISRDNAKNTVYLQMNSLKPEDTAVYYCAAVTAYYYRRTYEYWGQGTQVTVSS
polyreactivity (PSR sort gate): high polyreactivity

QVQLVESGGGLVQAGGSLRLSCAASGSTFIGNAMGWYRQAPGKERELVAAITRSGGSTFYADSVKGRFTISRDNAKNTVYLQMNSLKPEDTAVYYCAARNGAYPALTAGDYWGQGTQVTVSS
polyreactivity (PSR sort gate): high polyreactivity

QVQLVESWGGLVQAGGSLRLSCAASGSIFSPYAIGWYRQAPGKERELVAAISFRASTTYYADSVKGRFTITRDNAKNTVYLQMNSLKPEDTAVYYCAASPLYSWFWGLYDYWGQGTQVTVSS
polyreactivity (PSR sort gate): low polyreactivity

QVQLVESGGGLVQAGGSLRLSCAASGSIFSDYAMGWYRQAPGKERELVAAITQSGVSTYADSVKGRFTISRDNAKNTVYLQMNSLKPEDTAVYYCAADEVPGFGYPPYPWFDYWGQGTQVTVSS
polyreactivity (PSR sort gate): low polyreactivity

QVQLVESGGGLVQAGGSLRLSCSASGTFYGYAMAWSRQAPGKERELVASSTWGGGRTYYADSVKGRFTTSRDNAKNTVYLQMNSLKPEDTAVYYCATRSRPQYNKYDYWGQGTQVTVSS
polyreactivity (PSR sort gate): high polyreactivity

QVQLVESGGGLVQAGGSLRLSCASSGYTFRYYAMGWYRQAPGKERELVAAITRRGATTYYADSVKGRFTISRDNAKNTVYLQMNRLQPEDTADYYCNAVYQYGSFVTAAGNYWGQGTQVTVSS
polyreactivity (PSR sort gate): high polyreactivity

QVQLVESGGGLVQAGGSLRLSCAASGSIFVGYAMGWYRQAPGKERELVAAISVRGASTYYADSVKGRFTISRDNAKNTVYLQMNSLKPEDTAVYYCAARGNTPRTRRYGYWGQGTQVTVSS
polyreactivity (PSR sort gate): high polyreactivity

QVQLVESGGGLVQAGGSLRLSCAASGSIFWNNAMGWYRQAPGKERELVAGISGGSTNYADSVKGRFTISRDNAKNTVYLQMNSLKPEDTAVYYCATERQWESRFEAYDYWGQGTQVTVSS
polyreactivity (PSR sort gate): low polyreactivity

QDQLVESGGGLVQAGGSLRLSCAASGFTFTIYAMGGYRQAPGKEREFVAAISYTDGSTFYVDSVKGRFTISRDYAKNTVYLQMTSLKPEDTAVYYCAKDRPGWVHRRPTGGFDYWGQGTQVTVSS
polyreactivity (PSR sort gate): low polyreactivity

QVQLVESGGGLVQAGGSLRLSCAASGIIFYGYDMGWYRQAPGKERELVAAITWSGGSTYYADSVKGRFTISRDNAKNTVYLQMNSLKPEDTAVYYCNADLDSGYGSYDYWGQGTQVTVSS
polyreactivity (PSR sort gate): low polyreactivity

QVQLVDSGGGLVQAGGSLRLSCAASGRTSRRYAMGWYRQEPGKERELVAAIRGSGGSTYYADSVKGRFTISRDNAKNTVYLQMNSLKPEDTAVYYCAARSPRASGNSDYWGQGTQVTVSS
polyreactivity (PSR sort gate): high polyreactivity

QVQLVESGGGLVQAGGSLRLSCAASGLTFPSYAMGWYRQAPGKERELVAAISSGDSTNYADSVKGRFTISRDNAKNTVYLQMNSLKPEDTAVYYCAVGLPHGGRRLYGSWYRFDYWGQGTQVTVSS
polyreactivity (PSR sort gate): low polyreactivity

QVQLLESGGGLVQAGGSLRLSCAASGSTFKSYAMGWYRQAPGKERELVAAISGRGGSTYYADSVKGRVTISRDNAKNTVYLQMNSLKPEDTAVYYCNALGSQRYDYWGQGTQVTVSS
polyreactivity (PSR sort gate): high polyreactivity

QVQLVESGGGLVQAGGSLRLSCAASGFTFSTNAMGWYRQAPGKERELVAAITWRGGSTYYADSVKGRFTISRDNAKNTVYLQMNSLKPEDTAVYYCARRSRGSHVSYYKKFDYWGQGTQVTVSS
polyreactivity (PSR sort gate): low polyreactivity

QVQLVESGGGLVQAGGSLRLSCAASGSTFDIYAMGWYRQAPGKERELVAAISVSDVDTYYADSVKGRFTISRDNAKNTVYLQMNSLKPEDTAVYYCAAETPTHDEWGQGTQVTVSS
polyreactivity (PSR sort gate): high polyreactivity

QVQLVESGGGLVQAGGSLRLSCAASGNTFYVYAMGWYRQAPGKERELVADITWSGGSTYYADSVKGRFTISRDNAKNTVYLQMNSLKPEDTAVYYCNADYYYQLWELEYYYWGQGTQVTVSS
polyreactivity (PSR sort gate): high polyreactivity

QVQLVESGGGLVQAGGSLRLSCAASGSTFFGYAMGWYRQAPGKERELVAAIRYNGGHTYYADSVKGRFTISRDYAKNTVYLQMNRLKPEDTAVYYCAVDVVTSYYELTGSFNYWGQGTQVTVSS
polyreactivity (PSR sort gate): low polyreactivity
